For 36 molecules, EC50 cell proliferation and EC50 microphysiometer results are on record in patent US7091311 (GlaxoSmithKline, dated 2006).

Common to all, as to experiment: cell-based or functional assay
The target in assay [1] is T1, full length human TPO-R (human, UniProt P40238 26-635).
T1 sequence (looked up): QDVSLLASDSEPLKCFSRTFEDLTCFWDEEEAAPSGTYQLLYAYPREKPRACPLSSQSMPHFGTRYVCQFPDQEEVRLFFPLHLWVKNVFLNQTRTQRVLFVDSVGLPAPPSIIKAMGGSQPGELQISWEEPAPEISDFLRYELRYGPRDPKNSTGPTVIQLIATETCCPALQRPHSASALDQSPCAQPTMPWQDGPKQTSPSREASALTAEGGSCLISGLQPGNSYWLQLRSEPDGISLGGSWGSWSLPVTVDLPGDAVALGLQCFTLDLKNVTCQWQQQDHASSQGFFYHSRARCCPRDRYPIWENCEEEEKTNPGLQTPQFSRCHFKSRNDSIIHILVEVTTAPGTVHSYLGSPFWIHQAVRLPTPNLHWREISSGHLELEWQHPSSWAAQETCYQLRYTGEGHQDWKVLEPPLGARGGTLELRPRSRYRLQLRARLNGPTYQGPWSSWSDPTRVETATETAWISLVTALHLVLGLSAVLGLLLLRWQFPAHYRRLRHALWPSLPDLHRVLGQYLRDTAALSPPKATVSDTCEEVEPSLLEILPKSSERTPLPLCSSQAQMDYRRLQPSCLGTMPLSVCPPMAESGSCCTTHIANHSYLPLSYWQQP

Assay [2] deals with T1, full length human TPO-R. This is another data set of the same source.
Assay [3] has as its target T1, full length human TPO-R. This is another data set of the same source.

Where two headings read alike, the source gives them in different places. *1 amine or outer side, *2 acyl side, *3 side chain or, on linkers, in order; H or OH if unused. Bridges are numbered along the chain shown (N, C = ends). Where no end group is shown, it is not given here. [ ]: non-standard residue; d: D form. Phe(4-NO2) = N[C@@H](Cc1ccc([N+](=O)[O-])cc1)C(=O)O; Phe(3,4-Cl2) = N[C@@H](Cc1ccc(Cl)c(Cl)c1)C(=O)O; DiPhAla = diphenylalanine (source's own name); Ser(Bzl) = O=C([C@H](COCc1ccccc1)N[*:1])[*:2]; Phe(4-Cl) = N[C@@H](Cc1ccc(Cl)cc1)C(=O)O; 1Nal = N[C@@H](Cc1cccc2ccccc12)C(=O)O; 2Nal = N[C@@H](Cc1ccc2ccccc2c1)C(=O)O; NMeF = CN[C@@H](Cc1ccccc1)C(=O)O; hPhe = N[C@@H](CCc1ccccc1)C(=O)O; 2Thi = N[C@@H](Cc1cccs1)C(=O)O; Cha = N[C@@H](CC1CCCCC1)C(=O)O; NMeL = CN[C@@H](CC(C)C)C(=O)O; Phg = N[C@H](C(=O)O)c1ccccc1; Tle = CC(C)(C)[C@H](N)C(=O)O; NMeV = CN[C@H](C(=O)O)C(C)C; NMeA = CN[C@@H](C)C(=O)O; Nle = CCCC[C@H](N)C(=O)O; Nva = CCC[C@H](N)C(=O)O; Abu = CC[C@H](N)C(=O)O; Aib = CC(C)(N)C(=O)O; Sar = CNCC(=O)O

As for ADGPTLREWISFC (also: further groups not given here) [[drawing CHEM-US-00027] / [drawing CHEM-US-00028] (SEQ ID NO:173)], in assay [1], the EC50 cell proliferation is no more than 500 nM and the EC50 microphysiometer was no more than 500 nM. In assay [1], ADGPTLREWISFC (also: further groups not given here) [[drawing CHEM-US-00036] (SEQ ID NO:173)(SEQ ID NO:173)] yielded an EC50 cell proliferation of no more than 500 nM and an EC50 microphysiometer of no more than 500 nM. On to CADGPTLREWIS[Phe(4-NO2)]C (disulfide 1-14 (inferred); not fully specified) [SEQ ID NO:12 cyclized, F - (p-Nitrophe)], for which, in assay [2], the EC50 cell proliferation was no more than 500 nM and the EC50 microphysiometer is no more than 500 nM. In assay [3], ADGPTLREWISFC (not fully specified; also: further groups not given here) [[drawing CHEM-US-00013] (SEQ ID NO:173)] returned an EC50 cell proliferation of no more than 500 nM and an EC50 microphysiometer of roughly 200000 nM. CADGPTLREWI[Nle]FC (disulfide 1-14 (inferred); not fully specified) [SEQ ID NO:12 cyclized, S - (Nor-Leu)] showed an EC50 cell proliferation in assay [2] of no more than 500 nM. GPTLREWISFC (not fully specified; also: further groups not given here) [[drawing CHEM-US-00038] (SEQ ID NO:190)(SEQ ID NO:190)]: the EC50 cell proliferation in assay [1] was no more than 500 nM.

Molecule CADGPTLREWI[NMeA]FC (disulfide 1-14 (inferred); not fully specified) [SEQ ID NO:12 cyclized, S - (N-Me-Ala)] had an EC50 cell proliferation in assay [2] of roughly 200000 nM. For CADGPTLREWIS[Phe(3,4-Cl2)]C (disulfide 1-14 (inferred); not fully specified) [SEQ ID NO:12 cyclized, F - (3,4-di-Cl-Phe)], in assay [2], the EC50 cell proliferation is no more than 500 nM and the EC50 microphysiometer was no more than 200000 nM. In turn, CADGPTLREWIS[Ser(Bzl)]C (disulfide 1-14 (inferred); not fully specified) [SEQ ID NO:12 cyclized, F - (Ser(Bzl))] registered an EC50 cell proliferation in assay [2] of no more than 500 nM. Turning to CADGPTLREWI[Sar]FC (disulfide 1-14 (inferred); not fully specified) [SEQ ID NO:12 cyclized, S - Sar], the EC50 cell proliferation in assay [2] was roughly 200000 nM. In assay [1], PTLREWISFC (not fully specified; also: further groups not given here) [[drawing CHEM-US-00041] (SEQ ID NO:191)(SEQ ID NO:191)] had an EC50 cell proliferation of no more than 500 nM and an EC50 microphysiometer of no more than 500 nM. In assay [2], CADGPTLREWI[Aib]FC (disulfide 1-14 (inferred); not fully specified) [SEQ ID NO:12 cyclized, S - Aib] returned an EC50 cell proliferation of no more than 500 nM and an EC50 microphysiometer of no more than 200000 nM. Molecule CADGPTLREWIS[NMeF]C (disulfide 1-14 (inferred); not fully specified) [SEQ ID NO:12 cyclized, F - (N-Me-Phe)] showed an EC50 cell proliferation in assay [2] of no more than 500 nM. On the same count and under the same terms, under CADGPTLREWIS[1Nal]C (disulfide 1-14 (inferred); not fully specified) [SEQ ID NO:12 cyclized, F - (1-Nal)] stands no more than 500 nM. Consider CADGPTLREWIS[Phe(4-Cl)]C (disulfide 1-14 (inferred); not fully specified) [SEQ ID NO:12 cyclized, F - (p-Cl-Phe)], for which the EC50 cell proliferation in assay [2] is no more than 500 nM. In assay [2], CADGPTLREWIS[Phg]C (disulfide 1-14 (inferred); not fully specified) [SEQ ID NO:12 cyclized, F - (Phenylgly)] yielded an EC50 cell proliferation of no more than 500 nM and an EC50 microphysiometer of no more than 500 nM. CADGPTLREWI[NMeL]FC (disulfide 1-14 (inferred); not fully specified) [SEQ ID NO:12 cyclized, S - (N-Me-Leu)]: the EC50 cell proliferation in assay [2] was no more than 200000 nM.

In assay [3], EADGPTLREWISFK (also: further groups not given here) [[drawing CHEM-US-00015] (SEQ ID NO:182)] gave an EC50 cell proliferation of no more than 200000 nM and an EC50 microphysiometer of no more than 200000 nM. Take CADGPTLREWIS[Cha]C (disulfide 1-14 (inferred); not fully specified) [SEQ ID NO:12 cyclized, F - CHA]: in assay [2], the EC50 cell proliferation is no more than 500 nM and the EC50 microphysiometer was no more than 500 nM. In turn, CADGPTLREWIS[2Thi]C (disulfide 1-14 (inferred); not fully specified) [SEQ ID NO:12 cyclized, F - Thi] gave an EC50 cell proliferation in assay [2] of no more than 500 nM. In assay [2], CADGPTLREWI[Nva]FC (disulfide 1-14 (inferred); not fully specified) [SEQ ID NO:12 cyclized, S - Nva] showed an EC50 cell proliferation of no more than 500 nM and an EC50 microphysiometer of no more than 500 nM. As for CADGPTLREWIS[NMeA]C (disulfide 1-14 (inferred); not fully specified) [SEQ ID NO:12 cyclized, F - (N-Me-Ala)], in assay [2], the EC50 cell proliferation is roughly 200000 nM. Take TLREWISFC (also: further groups not given here) [[drawing CHEM-US-00043] (SEQ ID NO:192)(SEQ ID NO:192)]: in assay [1], the EC50 cell proliferation was roughly 200000 nM and the EC50 microphysiometer was no more than 500 nM. CADGPTLREWIS[Pyridylala]C (not fully specified (bridges); also: cyclized, type not given here) [SEQ ID NO:12 cyclized, F - (Pyridylala)] came in with an EC50 cell proliferation in assay [2] of no more than 500 nM. As to CADGPTLREWIS[2Nal]C (disulfide 1-14 (inferred); not fully specified) [SEQ ID NO:12 cyclized, F - (2-Nal)], in assay [2], the EC50 cell proliferation is no more than 500 nM and the EC50 microphysiometer was no more than 500 nM. Molecule CADGPTLREWI[Tle]FC (disulfide 1-14 (inferred); not fully specified) [SEQ ID NO:12 cyclized, S - (t-Bu-Gly)] displayed an EC50 cell proliferation in assay [2] of roughly 200000 nM. The molecule PTLREWISFC (not fully specified; also: further groups not given here) [[drawing CHEM-US-00040] (SEQ ID NO:191)(SEQ ID NO:191)] yielded an EC50 cell proliferation in assay [1] of no more than 500 nM.

Take KADGPTLREWISFE (also: further groups not given here) [[drawing CHEM-US-00014] (SEQ ID NO:181)]: in assay [3], the EC50 cell proliferation was no more than 200000 nM and the EC50 microphysiometer is roughly 200000 nM. For ADGPTLREWISFC (not fully specified; also: further groups not given here) [[drawing CHEM-US-00006] (SEQ ID NO:173)] the same measures were no more than 200000 nM and roughly 200000 nM. Take CADGPTLREWI[NMeV]FC (disulfide 1-14 (inferred); not fully specified) [SEQ ID NO:12 cyclized, S - (N-Me-Val)]: the EC50 cell proliferation in assay [2] was no more than 200000 nM. Regarding GPTLREWISFC (not fully specified; also: further groups not given here) [[drawing CHEM-US-00039] (SEQ ID NO:190)(SEQ ID NO:190)], in assay [1], the EC50 cell proliferation is no more than 500 nM and the EC50 microphysiometer is no more than 500 nM. In assay [2], CADGPTLREWIS[hPhe]C (disulfide 1-14 (inferred); not fully specified) [SEQ ID NO:12 cyclized, F - Homo-Phe] came in with an EC50 cell proliferation of no more than 500 nM and an EC50 microphysiometer of no more than 500 nM.

Molecule ADGPTLREWISFC (also: further groups not given here) [[drawing CHEM-US-00035] (SEQ ID NO:173)(SEQ ID NO:173)] displayed an EC50 cell proliferation in assay [1] of no more than 500 nM. The molecule CADGPTLREWIS[DiPhAla]C (disulfide 1-14 (inferred); not fully specified) [SEQ ID NO:12 cyclized, F - (DiPh - Ala)] registered an EC50 cell proliferation in assay [2] of no more than 500 nM. On the same count and under the same terms, under CADGPTLREWI[Abu]FC (disulfide 1-14 (inferred); not fully specified) [SEQ ID NO:12 cyclized, S - Abu] stands no more than 500 nM.

Take TLREWISFC (also: further groups not given here) [[drawing CHEM-US-00042] (SEQ ID NO:192)(SEQ ID NO:192)]: in assay [1], the EC50 cell proliferation was roughly 200000 nM and the EC50 microphysiometer is roughly 200000 nM.
